Assay [1] relates to uninduced CT26 tumor cell. The assay can be described thus: Early CT26 subcutaneous tumor-bearing model (tumor volume<50 mm^3). The assay is classed as in vivo, BALB/c mouse. On the procedure:
(§1) The uninduced CT26 tumor cell subcutaneous was inoculated into a female BALB/C mouse to construct a tumor-bearing mouse model in the two models, and the inoculation amount was 1×10^6 cells/; the mice were divided into two groups, and each group was 8 mice, that is, a blank control group mFc (the concentration was 10 mg/kg), and a coupling compound Nb16-SZU-101 group (the concentration was 10 mg/kg); and the administration dosage was 200 μL, and the administration manner was an abdominal administration. In the early model (the tumor volume was<50 mm^3), the drug was administered in Day 4, Day 7, Day 10, Day 13, Day 16, and the drug was administered for 5 times; in the late model (the tumor volume was greater than 200 mm^3), the drug was administered in Day 9, Day 12, Day 15, Day 17, and the drug was administered for 4 times. The tumor size was measured 2-3 times a week, and a tumor growth curve was drawn.

Assay [2] relates to IFN-γ-induced high-expression PD-L1 CT26. Put plainly: IFN-γ-induced high-expression PD-L1 CT26 subcutaneous tumor-bearing model, conjugate vs combined administration. The format is in vivo, BALB/c mouse. Conditions: Nb16 or Nb16-SZU-101 10 mg/kg, SZU-101 0.5 mg/kg, intraperitoneal. The method, then:
In an IFN-γ-induced high-expression PD-L1 CT26 subcutaneous tumor-bearing BALB/c mouse model, mice were randomly divided into four groups, namely an mFc group, an Nb16 group, an Nb16/SZU-101 combined administration group and an NB16-SZU-101 nanobody conjugate drug group, wherein the administration dosage of the mFc or Nb 16 or Nb16-SZU-101 was 10 mg/kg, the administration mode was intraperitoneal administration, the administration dosage of the SZU-101 was 0.5 mg/kg, and the administration mode was intraperitoneal administration; the drug was administered on Day 2, Day 6, Day 10 and Day 13 for a total of 4 times. Tumor sizes were measured 2-3 times per week, and tumor growth curves were drawn; and anatomical weighing and photographing were performed on mice at Day 14.

Another assay has as its system B16-F10 cells. Put plainly: Uninduced B16-F10 subcutaneous tumor-bearing model with low expression PD-L1. The assay is classed as in vivo, C57BL/6 mouse. Conditions: 10 mg/kg intraperitoneal. The method, then: The 6 to 8-week-old C57BL 6 mice were randomly divided into two groups, which were respectively as an mFc group and a nanobody-coupled drug NB 16-SZU-101 group. 1×10^6 B16-F10 cells (FIG. 9A) of 1×10^6 non-induced low-expression PD-L1 were planted under the underarm skin of mice (FIG. 9A). Administration was performed by using mFc and nanobody coupled drug Nb16-SZU-101, respectively; the administration dosage of the control drug and Nb16-SZU-101 was 10 mg/kg, and the volume is 200 μL; each group of drug delivery manners was intraperitoneal injection. Each group was administered at 2th, 5th, 8th and 11th days after tumor implantation, respectively, and the drug was administered for […]. On Day 12 mice would be euthanized.

Assay [3] deals with tumor immune microenvironment (CT26 subcutaneous tumors). Put plainly: Tumor immunotyping analysis by flow cytometry after conjugate administration. The format is in vivo, BALB/c mouse. Conditions: compared to mFc group. On the procedure: At a mouse anatomical endpoint of example 8.1, subcutaneous tumors were taken, 150 mg of tumor tissue was taken and cut into meat paste, and the meat paste was oscillated and digested at 180 rpm for 1.5 h at 37° C. in hyaluronidase and collagenase IV, and processed into a single cell suspension. The pretreated cell suspension was divided into two parts, one part was used for immunotyping analysis of macrophages and dendritic cells, and one part was used for immune typing analysis of T cells and NK cells.
The suspension treatment of macrophages and dendritic cell samples: the cells were treated with 2-4 mL sterile red blood cell lysis solution for 8 min and terminated with PBS buffer solution to remove red blood cells and fragments in the sample suspension; the cell sample was cleaned for use.
T cell and NK cell sample suspension treatment: the cells were centrifuged with lymphocyte separation liquid to obtain a lymphocyte separation layer, that is, the lymphocyte separation layer was a tumor lymphocyte suspension, and wascleaned for use.
The macrophages and dendritic cell samples and T cells and NK cell samples were sealed at 4° C. with an Fc receptor confining liquid for 1 hour, and non-specific staining caused by the Fc receptor was removed; cell surface protein staining is performed, specifically: M1 macrophages (FITC Rat Anti-Mouse CD45, PE-Cyanine7 Rat Anti-Mouse F4/80 and APC Rat anti-Mouse CD86), M2 macrophages (FITC RATw Anti-Mouse CD45 and PE-Cynine 7 RAT Anti-Mouse F4/80), dendritic cells (PE-Cy7 Anti-Mouse CD11c, BB515 Rat Anti-Mouse I-A/I-E, PE Hamster Anti-Mouse CD80, and APC Rat anti-Mouse CD86), CD4+T cells and CD8+T cells (FITC Hamster Anti-Mouse CD3e, PerCP-Cy™ 5.5 Rat Anti-Mouse CD4 and APC Rat Anti-Mouse CD8a), Treg cells (FITC Hamster Anti-Mouse CD3e, PerCP-CYy™ 5.5 Rat Anti-Mouse CD4 and PE Rat Anti-Mouse CD25), NK cells (CD3-FITC, CD49b-APC, CD69-PE), followed by dyeing on ice for 20 min.; then intracellular protein staining is performed, and after the cell is subjected to a fixed membrane rupture treatment, the cell is subjected to membrane rupture dyeing, specifically: M2 macrophages (MS CD206 Alexa 647 and ANTI-MOUSE LAP PE), functional T cells(ANTI-MOUSE GRANZYME B (NGZB) PE) containing granzyme, functional T cells (PE Rat Anti-Mouse IFN-γ) containing IFN-γ, Treg cells (ANTI-MOUSE/RAT FOXP3 APC), and then stained for 20 min on ice; after cleaning, re-suspending the sample cell sap, and performing on-machine detection on the flow cytometer.
A general note: In flow cytometry, cells or beads pass a laser one at a time.

The target in assay [4] is T1, PD-1/PD-L1 (HEK293T/mPD-L1) (Mus musculus, UniProt Q9EP73).
T1 construct: expressed in transfected cells; host or cells: HEK293T
Put plainly: Flow cytometry PD-1/PD-L1 blocking activity assay of the nanobody coupling drug. The format is binding. Conditions: mouse PD-1-biotin 20 μg/mL.

Assay [5] relates to uninduced CT26 tumor cell. Put plainly: Late CT26 subcutaneous tumor-bearing model (tumor volume>200 mm^3). The format is in vivo, BALB/c mouse. On the procedure:
as §1

The next assay has as its system CT26 tumor cells. Put plainly: Re-tumor model with CT26 cells in mice with regressed tumor. The assay is classed as in vivo, mouse. The note with it: re-tumor 1 week after tumor faded. From the text:
Moreover, in the early model, the coupling compound therapy will cause tumor regression of up to 62.5% tumor-bearing mice (FIG. 10B); in the late model, the compound drug will cause 12.5% tumor-bearing mice to have tumor regression (FIG. 10D).

“And” between values parts separate entries of the source, which are not always exact repeats. Equal values may be shown once.

T1 sequence (Q9EP73 19-290): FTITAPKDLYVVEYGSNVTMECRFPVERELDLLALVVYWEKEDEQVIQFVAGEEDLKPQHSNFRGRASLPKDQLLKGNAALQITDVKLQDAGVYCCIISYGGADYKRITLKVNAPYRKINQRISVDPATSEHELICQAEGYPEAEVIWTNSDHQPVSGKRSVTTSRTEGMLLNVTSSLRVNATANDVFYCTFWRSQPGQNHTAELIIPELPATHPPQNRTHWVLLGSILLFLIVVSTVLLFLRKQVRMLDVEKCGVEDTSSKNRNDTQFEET

B1: Nb16-SZU-101: PD-L1 and TLR7 dual-targeting nanobody coupling drug, Nb16 coupled with SZU-101-NHS active ester (conjugate)
chain: QVQLQESGGGSVQAGGSLRLSCAASGYTDRNYWMGWFRQAPGKEREGVAALYTRTGSTYYADSVKGRFTISHDNAKNTLYLQMNSLKPEDTAVYYCAADSNAYGLAPLHHYWGQGTQVTVSS
modifications: left off: a dimerising Fc or GST
For the molecule B1, in assay [1], the “Lifetime (survival)” value is given as “significantly prolong the lifetime”. The “Tumor growth inhibition rate” value in assay [1] (10 mg/kg abdominal administration, 5 doses) amounted to 80.3%. The “Tumor-bearing mice with tumor regression” value in assay [1] (10 mg/kg, 5 doses) is given as “up to 62.5%”. Further, in assay [2] (Day 14, 4 doses), the Tumor inhibitory rate turned out to be 81%. For the same molecule, the “Anti-tumor effect” value in assay [2] is “significantly improved anti-tumor effect”. In assay [2] (individual mice, Day 14, 4 doses), the “Endpoint tumor Weight” value was 0.191 g and 0.146 g and 0.155 g and 0.084 g and 0.012 g and 0.087 g. In addition, the Tumor inhibition rate entry in the assay with B16-F10 cells was “about 68.2%”. In assay [3], the “Expression of granzyme B and IFN-γ in tumor-infiltrating cytotoxic cells” value is reported as “promote the expression”; the “Function of tumor-infiltrating cytotoxic cells (CD8+T cells and NK cells)” value is recorded as “significantly increases”; the “Infiltration of IFN-γ+CD4+T cells” value is given as “significantly increased”; the “Infiltration of TGF-β+macrophages” value is recorded as “reduce the infiltration”. In assay [3], the “Macrophage expression of PD-L1 in tumor microenvironment” value was “promotes macrophage expression of PD-L1” and the “Re-polarization of tumor-associated macrophages” value is “promote the re-polarization”. The “Maturation of dendritic cells” value in assay [3] (tumors of example 8.1) is “promotes maturation of dendritic cells”. For the same molecule, in assay [4], the “PD-1/PD-L1 blocking activity of conjugate compared with Nb16” value is listed as “does not change the blocking activity”. Also, the “Lifetime (survival)” value in assay [5] is given as “significantly prolong the lifetime”. Moreover, the “Tumor growth inhibition rate” value in assay [5] (10 mg/kg abdominal administration, 4 doses) was 78.9%. For the same molecule, the “Tumor-bearing mice with tumor regression” value in assay [5] (10 mg/kg, 4 doses) worked out at 12.5%. In addition, the “Tumor growth after re-tumor of CT26 cells” value in the assay on CT26 tumor cells is listed as “does not grow the tumor within 40 days”.
